In the RNAGym collection of RNA variant scans (doi:10.1073/pnas.2313332121):
This sample holds only a part of the variants without activity.

B1: TPR 5TU (parent)
chain: GGAUCUUCUCGAUCUAACAAAAAAGACAAAUCUGCCACAAAGCUUGAGAGCAUCUUCGGAUGCAGAGGCGGCAGCCUUCGGUGGCGCGAUAGCGCCAACGUUCUCAACUAUGACACGCAAAACGCGUGCUCCGUUGAAUGGAGUUUAUCAUG

Variants of: B1
Experiment: polymerase ribozyme fitness, log enrichment relative to wild type (log ratio); higher = more active; in vitro selection for triplet polymerase activity
Procedure, shortened: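 Mutant libraries were PCR-built and transcribed for each subunit of a heterodimeric triplet polymerase ribozyme and selected for one round in triplicate at −7 °C, frozen, before gel excision of extended constructs and streptavidin-bead capture. Input and output libraries were Illumina-sequenced, keeping genotypes with ≥10 input reads and ≥1 read per output. Fitness is a logarithmic ratio of genotype to wild-type enrichment, in base 2, using inverse-variance-weighted replicate averages.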

| Variant | polymerase ribozyme fitness (log ratio) |
| --- | --- |
| A19U U55G C85G C96U C116A U139A | ≤ -4.2 |
| A19G G126C | 0.693 |
| A19G C35U U53G C54A G71A U145C | -2.47 |
| A20C A22U G58A U77C C96G | ≤ -4.2 |
| C18U U55G C75U G92C | -1.73 |
| A19U A20C A26U C85U C118A C125U U134G G143A | ≤ -4.2 |
| A19C A21G C57A G58U C72U C85U C103U U134C | -0.327 |
| A19C A41C U148C | -1.99 |
| A19U A21U G94A | -1.09 |
| A19C C57A A119G G128A | -4.12 |
| A19C C57A C131A | -2.25 |
| A19G A91U | ≤ -4.2 |
| A19G A40C C93U | -0.92 |
| A19U C27U C36A G42C G86A G100C C118G | ≤ -4.2 |
| A19G A29U C95U A122G | ≤ -4.2 |
| A19G A47C C57A C96U U101G C123U U145A | -0.877 |
| A19G G83A C85A C96U A97C A119G | ≤ -4.2 |
| C18U U53A G74C A107U U135C G140C | ≤ -4.2 |
| A19U A40C A91U C95G | ≤ -4.2 |
| C18U U55A C57G A66U U82G G94C A113U | ≤ -4.2 |
| A19U A29U A39G U44G C85U G143U | ≤ -4.2 |
| A19U U31C G46A C96U C131U U139G | -2.16 |
| A19G U33C A41C A91U C93A A97C | ≤ -4.2 |
| A19G U55A G68A G71A C103U | ≤ -4.2 |

| Variant | polymerase ribozyme fitness (log ratio) |
| --- | --- |
| C18U U56A C85A G124A U135G G136A | ≤ -4.2 |
| A19C A52G G88A A106G U139A | ≤ -4.2 |
| A19G G83A A91C G94C C96G U134G | ≤ -4.2 |
| C18U U53G C54A A91G A110G C114G | ≤ -4.2 |
| A19U U61A G86U A107G A115U G152U | ≤ -4.2 |
| A19C A26C | -1.76 |
| A19G G59U C76A C96U | -1.25 |
| A19C C27A A47C G58A G59A A91G C123A | ≤ -4.2 |
| A19U G59C A89U G92C A121G | -2.25 |
| A19G G50A G67A A91U C93A | ≤ -4.2 |
| A19U C57U C103G A119G C123A | -3.45 |
| A19G G42A A66C C85U A106U U148A | ≤ -4.2 |
| A19G A91G C95U C125U | -4.01 |
| A19C C51U A142C | -0.768 |
| A19C A52G G92C C96A A147C | -3.53 |
| A19G C32A U56G C57U U82A | ≤ -4.2 |
| A19U A26C A30U C35U A41U G84A U135A | ≤ -4.2 |
| A19C A22U G42U C75G C76A G94A A110U G133U G143U U146G | ≤ -4.2 |
| C18U G84A U102A C123G | -2.76 |
| A19C G58C C87A C95A A98G | ≤ -4.2 |
| A19U A47G U53G G67C C99U A142C A147C | ≤ -4.2 |
| A19C U61A C103A | ≤ -4.2 |
| A20C A21U A23C C51A C123A A138U | ≤ -4.2 |
| A19G G46C A107U A120C C129U | ≤ -4.2 |

| Variant | polymerase ribozyme fitness (log ratio) |
| --- | --- |
| A19C A29C U33G C87G C108U U135A U148A | ≤ -4.2 |
| A19U G48C C75U U77C C93G A122U A150C | ≤ -4.2 |
| A19G G84C A115U A121G | -3.97 |
| A19C G48C C51A G86U G128U | ≤ -4.2 |
| A19C U56C C96U G133C | -2.22 |
| C18U G42A A73U C95U A98U C103G | ≤ -4.2 |
| C18U U55A C93A G128A G136A | ≤ -4.2 |
| A19U G59U G86A G136A | -2.01 |
| A19U A21G U45G U56A G92U | -1.94 |
| A19C C85U | -0.536 |
| A19U A40U C54A A60G C96U | -2.61 |
| A19U G50A G71A A89G A137G | ≤ -4.2 |
| A19C U31C | 1.56 |
| A19U A28U A52G C105G G126C G141C U148A C149U A150C | ≤ -4.2 |
| A19G C57U G67U G94A C105A | ≤ -4.2 |
| A19C A20U U61C C76A U82C A91U U130G U146C | ≤ -4.2 |
| C18U U31A A60G G84C A89C C105U | -2.16 |
| A19U G86C | -2.58 |
| A19U G86A | -2.04 |
| A19G A39U U55G A121C | -2.95 |
| A19C A22G U31G C38U A107U G117A | -4.16 |
| A19G U53G A120U | -2.57 |
| A19U A40G U101G | -3.45 |
| A19C A23G A24G U31A C35A A40U G48A C79A G140A | ≤ -4.2 |

| Variant | polymerase ribozyme fitness (log ratio) |
| --- | --- |
| A19U G25U C35A G65U A91U A120G G140A A142U | -4.19 |
| A19C A40U G46A | -0.204 |
| A19C U44A | -3.87 |
| A19U A49C A52G A106G | ≤ -4.2 |
| A19U C87U G141U U146C | 0.666 |
| A19U C76U C131U | 0.231 |
| A19U G58A C105G | -2.43 |
| A19U C96G C114U | -2.99 |
| A19C G58C C95U G140U | -3.88 |
| A19C C57U G94U | -0.554 |
| A20C A21G A23C A28U C38A | ≤ -4.2 |
| A19G C38U G50A G86A C105A C116A A121U G141C | ≤ -4.2 |
| A19U C51U G58C C85U A91U C114U C118U | ≤ -4.2 |
| A19C C93U | 0.111 |
| A19C C93G | -2.84 |
| A19C U53A G92A | -3.8 |
| A19U G34U C51U U53C G81A G86U G92A C96U A98G | ≤ -4.2 |
| A19C U109G | -0.641 |
| C18U U55A | -1.49 |
| A19U C35U G42U U55G G67A C85G A97C C114G G140U | ≤ -4.2 |
| A19G G50A G83C G86U C96U | ≤ -4.2 |
| A19U A91G C93G U111A A137C | ≤ -4.2 |
| A19G C93A | -3.43 |
| A19C C43U C51G G71A C87G C105U C108U G141C | ≤ -4.2 |

| Variant | polymerase ribozyme fitness (log ratio) |
| --- | --- |
| A19C A41C G48C C87U A91C A115C A122U G136C U145A | ≤ -4.2 |
| A19U A49C C69U U77G C79A G84A C99A A113C C114G A142C | ≤ -4.2 |
| A19G A26U C85A A97C A119U C123U | ≤ -4.2 |
| A19C G83U C87U | -0.445 |
| A19C U53A G58A | 0.679 |
| A19U A20G A66G G80A C87A A107G A110C | ≤ -4.2 |
| A19G A20G A60G C76A A89U C93A | ≤ -4.2 |
| A19U A73G G86U | -1.03 |
| A19C A21C C35U G59U C75U | -1.16 |
| C18U G83A | -0.637 |
| C18U G83C | -1.3 |
| A19U C69G C96G U104G | -1.98 |
| A19U G58A G94U C116A A119C | -0.758 |
| A19U G59A G83U C95A C132U G136U G141A | ≤ -4.2 |
| A20C A24G | -4.02 |
| A19C A37U G70U U144C | ≤ -4.2 |
| A19U A20U C85U | -2.59 |
| A19U G50U G58C C75U C118G A120G G141A U146A | ≤ -4.2 |
| A19U A49G C57A A60U C116U | -2.27 |
| A19C A29U A39U A60U C76U C95U U144A | ≤ -4.2 |
| A19U U31G U144C | -1.49 |
| A19U C69G C85U U134G G152U | ≤ -4.2 |
| A19U U31C C51U | 0.159 |
| A19U U45A G83C | -3.67 |

| Variant | polymerase ribozyme fitness (log ratio) |
| --- | --- |
| A19U A22C G94C C96G C123U G128A U139C U146C | ≤ -4.2 |
| A19U C131A | -1.75 |
| A19C A21U A40C A60C C96G A110G G136U | ≤ -4.2 |
| A19C C96U A106G A120C | 0.311 |
| C18U U33A A39U A52C C72U G94A C95U C132U | ≤ -4.2 |
| A19U U45G | -0.38 |
| A19U C96G A122U | -0.445 |
| A19C A24G C32U C38U G59A C85A G133U U145C | ≤ -4.2 |
| A19G C32A G46C C54U G59C A106U G128C | ≤ -4.2 |
| A19U G81A | -0.839 |
| A19G C85A | -2.09 |
| A19U A40C G81C C96G | -1.25 |
| A19G G59U G84U C105G | -3.78 |
| A19U A89U G136U | -3.55 |
| A19U C27A A91U G94U G126U G141A G143C | ≤ -4.2 |
| A20C A22U C51U | -0.386 |
| A19G C54G C96G C149U | -3.72 |
| A19C C87U A97G A137U A142C | -4.12 |
| C18U U31C U56G A138U G140A | -4 |
| A19U G81C C85U U145A | -0.303 |
| A19C C27G G70A C76U G94U C103U A120U C129A U148C | ≤ -4.2 |
| A19U A106G G143C | -2.4 |
| A19U U33A G84A G92C G94C | ≤ -4.2 |
| A19C A60C U102G U109G U151G | ≤ -4.2 |

| Variant | polymerase ribozyme fitness (log ratio) |
| --- | --- |
| A19G A41C G42C A49C U90C U127A | ≤ -4.2 |
| A19U C32A G84A G128U C131U A137G | -3.73 |
| A19C A150U | 2.88 |
| A19C A150G | -0.495 |
| A19C A24G G94U C95G | ≤ -4.2 |
| A19G A97U | -0.98 |
| A19C A39U G84C C93A U148A | ≤ -4.2 |
| A19C U55A C123G C125A U148G | ≤ -4.2 |
| A19U C38U A49C G58C C79U G88A A97C | ≤ -4.2 |
| A19U C54U U134C A150C | -2.5 |
| A19C U31A C38A G80A A98U | -0.863 |
| A19U A47C U55G C87U G92U U101C | -2.81 |
| A19C A20C A40G U55C G71U G84A A138U U139A | ≤ -4.2 |
| A19U C43G C54G A91G | ≤ -4.2 |
| A19U G46U A52U | ≤ -4.2 |
| A19U C69G C72U G84A | -3.03 |
| A19U C38G G59C G86A C99U G117U C118A U127A A138G | ≤ -4.2 |
| A19U A41C G58A C85G | -2.71 |
| A19U A22C U55G A64C A73G A91C U144A | ≤ -4.2 |
| A19U A37C U135G | -3.82 |
| A19G G25U A47C U78C C96A | ≤ -4.2 |
| A19U G59A G83U U139G | -1.28 |
| A19C C72A A107U G143A | ≤ -4.2 |
